Measurements reported in publication PMC7255614.

Key:
fibronectin [1] = molecular target: fibronectin (UniProt P02751); assay: SPR; Biacore 3000; fibronectin on a CM5 chip; 0-500 nM untagged OspC variants injected at 10 μl/min, 25°C; 1:1 Langmuir model; KD from the average koff divided by kon of each run
fibronectin [2] = molecular target: fibronectin (UniProt P02751); assay: ELISA; wells coated with 10 μg/ml purified fibronectin in 0.05 M Na2CO3 pH 9.0; 0.03125-2 μM GST or GST-tagged OspC variants, 1 hr at ambient temperature; goat anti-GST and HRP-conjugated anti-goat IgG; estimated KD from a fit of OD405

fibronectin, sequence (P02751 32-2477): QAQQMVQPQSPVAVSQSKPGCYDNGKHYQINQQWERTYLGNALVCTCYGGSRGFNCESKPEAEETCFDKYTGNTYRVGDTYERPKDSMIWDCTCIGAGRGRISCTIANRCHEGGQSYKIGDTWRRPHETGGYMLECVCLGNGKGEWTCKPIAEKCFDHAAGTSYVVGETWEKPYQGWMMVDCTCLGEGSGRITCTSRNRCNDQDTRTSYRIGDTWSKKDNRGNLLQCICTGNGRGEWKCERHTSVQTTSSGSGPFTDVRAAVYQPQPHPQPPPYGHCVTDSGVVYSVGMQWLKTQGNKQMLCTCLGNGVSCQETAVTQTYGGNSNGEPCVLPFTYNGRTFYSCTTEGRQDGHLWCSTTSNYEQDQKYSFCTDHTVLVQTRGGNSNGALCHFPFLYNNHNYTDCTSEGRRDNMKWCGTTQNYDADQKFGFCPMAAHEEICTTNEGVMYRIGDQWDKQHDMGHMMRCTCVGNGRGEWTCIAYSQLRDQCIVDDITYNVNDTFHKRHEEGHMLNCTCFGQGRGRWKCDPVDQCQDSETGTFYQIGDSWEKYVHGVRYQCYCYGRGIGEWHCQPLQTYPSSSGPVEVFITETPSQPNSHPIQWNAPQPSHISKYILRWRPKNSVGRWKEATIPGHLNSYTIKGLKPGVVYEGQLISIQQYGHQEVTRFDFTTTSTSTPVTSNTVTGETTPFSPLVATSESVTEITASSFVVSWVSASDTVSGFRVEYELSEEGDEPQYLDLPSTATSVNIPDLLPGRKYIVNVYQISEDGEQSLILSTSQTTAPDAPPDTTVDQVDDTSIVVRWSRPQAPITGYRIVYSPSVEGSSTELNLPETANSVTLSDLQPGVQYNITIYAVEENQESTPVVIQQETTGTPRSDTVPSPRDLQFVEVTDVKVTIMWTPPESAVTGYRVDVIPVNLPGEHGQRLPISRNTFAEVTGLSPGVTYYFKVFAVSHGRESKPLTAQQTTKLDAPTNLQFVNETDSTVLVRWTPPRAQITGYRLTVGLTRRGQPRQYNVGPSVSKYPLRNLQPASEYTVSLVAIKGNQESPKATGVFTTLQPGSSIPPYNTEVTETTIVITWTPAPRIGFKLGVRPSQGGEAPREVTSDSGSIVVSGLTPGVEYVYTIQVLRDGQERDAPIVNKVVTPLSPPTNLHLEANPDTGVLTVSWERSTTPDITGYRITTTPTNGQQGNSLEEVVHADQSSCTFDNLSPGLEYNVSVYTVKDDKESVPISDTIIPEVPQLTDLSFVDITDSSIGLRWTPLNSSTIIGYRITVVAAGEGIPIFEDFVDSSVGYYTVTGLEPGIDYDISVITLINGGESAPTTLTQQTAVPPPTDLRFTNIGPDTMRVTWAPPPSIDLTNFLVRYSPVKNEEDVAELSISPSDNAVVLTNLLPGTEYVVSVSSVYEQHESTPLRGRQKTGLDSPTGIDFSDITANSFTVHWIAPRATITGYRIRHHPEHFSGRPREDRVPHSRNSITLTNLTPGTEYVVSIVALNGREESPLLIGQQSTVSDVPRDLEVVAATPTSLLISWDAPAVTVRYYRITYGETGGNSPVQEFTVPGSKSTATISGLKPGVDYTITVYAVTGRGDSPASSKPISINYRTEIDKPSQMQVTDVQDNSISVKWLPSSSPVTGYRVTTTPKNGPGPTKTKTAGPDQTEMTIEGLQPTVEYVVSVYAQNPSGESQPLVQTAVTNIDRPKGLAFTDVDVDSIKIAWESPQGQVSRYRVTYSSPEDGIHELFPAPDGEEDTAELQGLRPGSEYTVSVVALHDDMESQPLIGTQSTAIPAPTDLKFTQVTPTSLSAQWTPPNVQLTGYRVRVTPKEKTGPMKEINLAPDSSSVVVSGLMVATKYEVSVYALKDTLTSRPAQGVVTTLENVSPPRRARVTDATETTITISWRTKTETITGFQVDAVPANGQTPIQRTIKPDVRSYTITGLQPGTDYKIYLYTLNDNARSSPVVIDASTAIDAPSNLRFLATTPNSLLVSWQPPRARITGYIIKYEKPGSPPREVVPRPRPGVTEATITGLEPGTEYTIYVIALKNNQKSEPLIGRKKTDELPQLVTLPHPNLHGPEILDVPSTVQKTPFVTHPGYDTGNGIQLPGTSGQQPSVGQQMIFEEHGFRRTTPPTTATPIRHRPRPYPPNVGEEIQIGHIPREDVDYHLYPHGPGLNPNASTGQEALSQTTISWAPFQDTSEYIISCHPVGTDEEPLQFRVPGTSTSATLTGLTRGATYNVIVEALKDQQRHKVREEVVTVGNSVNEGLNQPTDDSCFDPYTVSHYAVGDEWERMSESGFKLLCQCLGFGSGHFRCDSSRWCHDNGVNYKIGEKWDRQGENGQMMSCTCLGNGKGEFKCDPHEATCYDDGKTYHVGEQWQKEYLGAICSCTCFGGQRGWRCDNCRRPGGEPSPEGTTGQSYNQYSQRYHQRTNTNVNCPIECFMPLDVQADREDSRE

| Substance | Kd (fibronectin [1]) | koff (fibronectin [1]) | kon (fibronectin [1]) | Kd (fibronectin [2]) |
| --- | --- | --- | --- | --- |
| OspC297, untagged (natural protein) | 1.75 µM | 0.06 s⁻¹ | 36800 M⁻¹ s⁻¹ |  |
| GST-OspC_(N40-D10/E9) (natural protein; other documents disagree on this pair) |  |  |  | 0.35 µM |
